Measured values published in the supplement of paper PMC7877785.
± gives the uncertainty stated by the source.

Experiment: self-splicing fitness, log relative to wild type (ln ratio); higher = more splicing; Tetrahymena group I intron in knt gene, E. coli kanamycin selection, DiMSum; sequences stand for … in CUCUCU…GGAGGGAAAAGUUAUCAGGCAUGCACCUGGUAGCUAGUCUUUAAACCAAUAGAUUGCAUCGGUUUAAAAGGCAAGACCGUCAAAUUGCGGGAAAGGGGUCAACAGCCGUUCAGUACCAAGUCUCAGGGGAAACUUUGAGAUGGCCUUGCAAAGGGUAUGGUAAUAAGCUGACGGACAUGGUCCUAACCACGCAGCCAAGUCCUAAGUCAACAGAUCUUCUGUUGAUAUGGAUGCAGUUCACAGACUAAAUGUCGGUCGGGGAAGAUGUAUUCUUCUCAUAAGAUAUAGUCGGACCUCUCCUUAAUGGGAGCUAGCGGAUGAAGUGAUGCAACACUGGAGCCGCUGGGAACUAAUUUGUAUGCGAAAGUAUAUUGAUUAGUUUUGGAGUACUCGUGGUCG
Method in brief: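 Library with all eight P1ex-region intron nucleotides randomised, intron inside the knt kanamycin-resistance gene on pET-22b(+), in E. coli BL21(DE3). Cells grew overnight at 37°C or 30°C on LB agar with or without 25 μg/mL kanamycin (plus 100 μg/mL carbenicillin, 50 μM IPTG, 0.2% rhamnose), in six replicate transformations. Pooled colonies were amplicon-sequenced on Illumina HiSeq 2500. DiMSum fitness is the error-weighted combination of wild-type-normalised replicate fold changes, kanamycin versus none.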

Sequence	self-splicing fitness (ln) (30 °C)	self-splicing fitness (ln) (37 °C)
ACCGAGCAAUAUUACGCGAU	-2.5 ± 0.14	-1.73 ± 0.14
ACCGAGCAAUAUUACGCGGA	-2.09 ± 0.1	-0.721 ± 0.089
ACCGAGCAAUAUUACGCUGU	-3.32 ± 0.17	-0.834 ± 0.13
ACCGAGCAAUAUUACGGACU	-0.27 ± 0.073	0.614 ± 0.1
ACCGAGCAAUAUUACGGAUC	-3.86 ± 0.26	-1.95 ± 0.2
ACCGAGCAAUAUUACGGUAC	-2.82 ± 0.3	-2.46 ± 0.33
ACCGAGCAAUAUUACGGUGU	-2.88 ± 0.13	-2.15 ± 0.12
ACCGAGCAAUAUUACGGUUA	-1.33 ± 0.18	-1.85 ± 0.17
ACCGAGCAAUAUUACGUGGA	-2.84 ± 0.15	-2.99 ± 0.18
ACCGAGCAAUAUUACGUGUC	-3.24 ± 0.2	-3.04 ± 0.27
ACCGAGCAAUAUUACGUUAU	-3.78 ± 0.14	-2.6 ± 0.15
ACCGAGCAAUAUUACGUUCU	-2.38 ± 0.074	-1.01 ± 0.074
ACCGAGCAAUAUUACGUUUG	-2.86 ± 0.13	-2.19 ± 0.14
ACCUAGCAAUAUUACGAAGG	-2.16 ± 0.086	-1.85 ± 0.15
ACCUAGCAAUAUUACGACCC	-0.886 ± 0.2	-0.637 ± 0.31
ACCUAGCAAUAUUACGAGCA	-1.17 ± 0.1	-1.59 ± 0.14
ACCUAGCAAUAUUACGAGCG	-1.06 ± 0.085	-0.509 ± 0.097
ACCUAGCAAUAUUACGAUUC	-1.72 ± 0.083	-0.58 ± 0.097
ACCUAGCAAUAUUACGCAGG	-3.34 ± 0.23	-2.73 ± 0.26
ACCUAGCAAUAUUACGCAUC	-1.83 ± 0.072	-0.436 ± 0.078
ACCUAGCAAUAUUACGGACA	-0.384 ± 0.075	-0.189 ± 0.08
ACCUAGCAAUAUUACGGACC	-0.548 ± 0.16	0.368 ± 0.17
ACCUAGCAAUAUUACGGCGA	-1.49 ± 0.12	-0.462 ± 0.11
ACCUAGCAAUAUUACGGGAG	-1.93 ± 0.072	-1.41 ± 0.088

Sequence	self-splicing fitness (ln) (30 °C)	self-splicing fitness (ln) (37 °C)
ACCUAGCAAUAUUACGGGGU	-3.47 ± 0.16	-2.61 ± 0.17
ACCUAGCAAUAUUACGGUAC	-3.75 ± 0.37	-2.76 ± 0.26
ACCUAGCAAUAUUACGGUGC	-1.87 ± 0.074	-0.926 ± 0.092
ACCUAGCAAUAUUACGGUGU	-2.97 ± 0.1	-1.93 ± 0.12
ACCUAGCAAUAUUACGGUUG	-3.37 ± 0.13	-2.71 ± 0.17
ACCUAGCAAUAUUACGUCAC	-4.1 ± 0.18	-1.83 ± 0.2
ACCUAGCAAUAUUACGUCGC	-2.66 ± 0.18	-0.636 ± 0.15
ACCUAGCAAUAUUACGUCUG	-2.84 ± 0.2	-2.03 ± 0.15
ACCUAGCAAUAUUACGUUAC	-3.6 ± 0.21	-3.13 ± 0.23
ACCUAGCAAUAUUACGUUCG	-1.5 ± 0.078	-0.444 ± 0.096
ACGAAGCAAUAUUACGACAC	-2.4 ± 0.13	-0.952 ± 0.14
ACGAAGCAAUAUUACGACAU	-0.681 ± 0.011	-0.109 ± 0.032
ACGAAGCAAUAUUACGACCA	-0.752 ± 0.15	-0.848 ± 0.13
ACGAAGCAAUAUUACGACGA	-1.04 ± 0.097	-0.181 ± 0.12
ACGAAGCAAUAUUACGAGAA	-1.6 ± 0.37	
ACGAAGCAAUAUUACGAGGA	-3.29 ± 0.44	-2 ± 0.29
ACGAAGCAAUAUUACGAGUU	-3.04 ± 0.11	-1.91 ± 0.15
ACGAAGCAAUAUUACGAUCG	-0.102 ± 0.073	0.139 ± 0.11
ACGAAGCAAUAUUACGAUGU	-3.96 ± 0.19	-2.74 ± 0.18
ACGAAGCAAUAUUACGCACU	-0.656 ± 0.094	-0.172 ± 0.11
ACGAAGCAAUAUUACGCCGC	-3.56 ± 0.21	-2.02 ± 0.24
ACGAAGCAAUAUUACGCCGG	-0.858 ± 0.11	-0.467 ± 0.11
ACGAAGCAAUAUUACGCCUC	-2.93 ± 0.31	-1.77 ± 0.47
ACGAAGCAAUAUUACGCGAC	-3.14 ± 0.2	-1.78 ± 0.19
